A short description of data set [1]: Blood glucose in nude mice. The class given is in vivo, mouse. The following applies: 40 μg insulin ip in animals treated with 100 mpk AKTi.
Data set [2] can be described thus: Plasma insulin in nude mice. To be noted: 30 min after injection; for plasma insulin levels increase: no AKTi.
A further data set concerns the target Akt3 (Mus musculus, UniProt Q9WUA6). Description: Ex vivo IP-kinase assay of Akt3 in mouse tissues. To be noted: exogenous insulin ip (1 or 5 μg).
The target in a further data set is Akt1 (Mus musculus, UniProt P31750). Description: Ex vivo IP-kinase assay of Akt1 in mouse tissues. The following applies: exogenous insulin ip.
Data set [3] concerns Akt signaling (pAkt, S6 protein, 4EBP-1) in LNCaP and T47D cells. In words: Western blot of Akt pathway phosphorylation in LNCaP and T47D cells. The following applies: 3 hrs. (Immunoblotting shows a protein as a band on a membrane.)

Sequence of Akt3 (Q9WUA6 whole entry): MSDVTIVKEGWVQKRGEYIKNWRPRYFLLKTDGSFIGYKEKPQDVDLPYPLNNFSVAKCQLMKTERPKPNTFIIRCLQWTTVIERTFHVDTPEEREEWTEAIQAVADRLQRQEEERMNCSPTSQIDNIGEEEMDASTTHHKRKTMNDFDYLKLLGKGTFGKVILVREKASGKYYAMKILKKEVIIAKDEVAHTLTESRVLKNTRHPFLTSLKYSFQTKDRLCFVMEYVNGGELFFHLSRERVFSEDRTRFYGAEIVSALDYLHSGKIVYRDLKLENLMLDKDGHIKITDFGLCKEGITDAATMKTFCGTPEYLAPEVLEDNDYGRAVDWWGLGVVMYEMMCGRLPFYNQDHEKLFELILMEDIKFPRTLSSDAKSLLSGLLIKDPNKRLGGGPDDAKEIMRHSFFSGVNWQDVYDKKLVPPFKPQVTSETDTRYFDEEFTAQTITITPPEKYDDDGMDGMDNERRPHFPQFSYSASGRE
Sequence of Akt1 (P31750 whole entry): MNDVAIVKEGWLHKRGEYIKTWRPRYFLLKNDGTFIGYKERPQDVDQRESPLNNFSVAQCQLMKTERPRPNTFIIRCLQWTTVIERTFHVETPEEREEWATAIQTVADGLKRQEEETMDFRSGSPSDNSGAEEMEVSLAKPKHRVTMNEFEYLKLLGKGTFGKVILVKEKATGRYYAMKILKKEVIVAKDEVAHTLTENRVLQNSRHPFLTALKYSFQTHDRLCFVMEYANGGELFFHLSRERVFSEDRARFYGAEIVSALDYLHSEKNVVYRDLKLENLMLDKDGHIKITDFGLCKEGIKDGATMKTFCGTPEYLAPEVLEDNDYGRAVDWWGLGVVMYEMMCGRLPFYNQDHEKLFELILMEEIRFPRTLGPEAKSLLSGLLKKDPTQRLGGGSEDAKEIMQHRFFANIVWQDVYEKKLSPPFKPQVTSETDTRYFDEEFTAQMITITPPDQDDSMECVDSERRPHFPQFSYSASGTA

“Insulin: Recombinant insulin obtained from Invitrogen, injected intraperitoneally”: in data set [1], the “effect on glucose levels” value was “only a minor effect on glucose levels”. The “plasma insulin levels increase” value in data set [2] (1 μg insulin ip) is on record as “about 20 fold”; in data set [2] (5 μg insulin ip), approximately 100 fold. Moreover, the “Insulin, plasma” value in data set [2] (insulin 5.0 μg per mouse ip) was 77 ± 21 ng/mL. For the same compound, in the data set with Akt3, the “maximal increase of Akt3 activity in lung” value stood at 40%. For the same compound, the “induction of Akt1 activity in liver” value with Akt1 is on record as approximately 10 fold.

As to `Cc1n[nH]c2ccc(-c3cncc(OC[C@@H](N)Cc4c[nH]c5ccccc45)c3)cc12` [A443654], in data set [3], the “blocking phosphorylation of S6 protein and 4EBP-1” value is “equally effective at blocking phosphorylation”; the “hyper-phosphorylation of Akt” value is on record as “feed-back hyper-phosphorylation”.

These data come from article PMC2987445 (Cancer biology & therapy, 2010).
